The Kd is the free concentration of one partner at which half of the binding sites on the other are occupied at equilibrium, for simple one-to-one binding. A low value points to a tighter complex.

The series addresses Transferrin receptor 1 (TfR, CD71) (Homo sapiens) (UniProt P02786). As to the kind of experiment: flow cytometry cell binding. The note with it: 5 mM Mg2+, PBS, 4.5 g/L glucose, 5 mM MgCl2, 1 mg/mL BSA, 0.1 mg/mL herring sperm DNA, 30 min on ice (4 C), intact cells.
Setting [1] is: HCT-8T cells (cell line inferred).

Chain of UniProt P02786 (P02786 whole entry): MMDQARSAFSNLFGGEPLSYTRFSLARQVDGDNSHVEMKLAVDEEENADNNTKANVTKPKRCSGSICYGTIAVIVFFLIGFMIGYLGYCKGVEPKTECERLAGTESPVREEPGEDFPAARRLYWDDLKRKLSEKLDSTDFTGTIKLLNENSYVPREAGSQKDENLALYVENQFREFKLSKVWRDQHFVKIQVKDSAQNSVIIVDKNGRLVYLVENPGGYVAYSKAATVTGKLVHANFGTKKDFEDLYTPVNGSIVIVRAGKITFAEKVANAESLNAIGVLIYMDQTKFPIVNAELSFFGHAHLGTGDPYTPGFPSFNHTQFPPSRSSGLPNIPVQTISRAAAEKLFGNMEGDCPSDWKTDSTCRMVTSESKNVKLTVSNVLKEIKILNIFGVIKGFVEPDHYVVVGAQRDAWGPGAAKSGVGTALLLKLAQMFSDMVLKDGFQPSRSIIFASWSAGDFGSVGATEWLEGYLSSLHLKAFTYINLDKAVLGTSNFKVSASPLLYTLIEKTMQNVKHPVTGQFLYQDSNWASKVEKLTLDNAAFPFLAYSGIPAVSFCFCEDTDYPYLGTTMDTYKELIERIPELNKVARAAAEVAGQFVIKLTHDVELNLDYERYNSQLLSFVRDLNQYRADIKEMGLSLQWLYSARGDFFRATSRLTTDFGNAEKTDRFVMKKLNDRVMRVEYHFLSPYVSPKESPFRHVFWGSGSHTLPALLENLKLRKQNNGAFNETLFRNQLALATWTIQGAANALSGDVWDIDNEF

The sequence “AAGGAGCAGCGTGGAGGATAGGGATTCTGTTGGTCGGCTGGTTGGTATCCTTAGGGTGTGTCGTCGTGGT [HG1]” gave a Kd under setting [1] of 6.48 nM. In other words, the single-digit nanomolar range.
Turning to “GGATAGGGATTCTGTTGGTCGGCTGGTTGGTATCC [HG1-9]”, the Kd amounted to 5.4 nM under setting [1], 19.8 nM (HeLa cells) and 11 nM (Jurkat cells).

For the origin of these results see article PMC8396340.
